B1: GATA2 (protein, UniProt P23769 1-480, looked up)
Endothelial transcription …: MEVAPEQPRWMAHPAVLNAQHPDSHHPGLAHNYMEPAQLLPPDEVDVFFNHLDSQGNPYYANPAHARARVSYSPAHARLTGGQMCRPHLLHSPGLPWLDGGKAALSAAAAHHHNPWTVSPFSKTPLHPSAAGGPGGPLSVYPGAGGGSGGGSGSSVASLTPTAAHSGSHLFGFPPTPPKEVSPDPSTTGAASPASSSAGGSAARGEDKDGVKYQVSLTESMKMESGSPLRPGLATMGTQPATHHPIPTYPSYVPAAAHDYSSGLFHPGGFLGGPASSFTPKQRSKARSCSEGRECVNCGATATPLWRRDGTGHYLCNACGLYHKMNGQNRPLIKPKRRLSAARRAGTCCANCQTTTTTLWRRNANGDPVCNACGLYYKLHNVNRPLTMKKEGIQTRNRKMSNKSKKSKKGAECFEELSKCMQEKSSPFSAAALAGHMAPVGHLPPFSHSGHILPTPTPIHPSSSLSFGHPHPSSMVTAMG
B2: GATAD1 (protein, UniProt Q8WUU5 1-269, looked up)
GATA zinc finger …: MPLGLKPTCSVCKTTSSSMWKKGAQGEILCHHCTGRGGAGSGGAGSGAAGGTGGSGGGGFGAATFASTSATPPQSNGGGGGKQSKQEIHRRSARLRNTKYKSAPAAEKKVSTKGKGRRHIFKLKNPIKAPESVSTIITAESIFYKGVYYQIGDVVSVIDEQDGKPYYAQIRGFIQDQYCEKSAALTWLIPTLSSPRDQFDPASYIIGPEEDLPRKMEYLEFVCHAPSEYFKSRSSPFPTVPTRPEKGYIWTHVGPTPAITIKESVANHL
B3: GCN512 (protein, UniProt Q92830 2-837, looked up)
Histone acetyltransferase …: AEPSQAPTPAPAAQPRPLQSPAPAPTPTPAPSPASAPIPTPTPAPAPAPAAAPAGSTGTGGPGVGSGGAGSGGDPARPGLSQQQRASQRKAQVRGLPRAKKLEKLGVFSACKANETCKCNGWKNPKPPTAPRMDLQQPAANLSELCRSCEHPLADHVSHLENVSEDEINRLLGMVVDVENLFMSVHKEEDTDTKQVYFYLFKLLRKCILQMTRPVVEGSLGSPPFEKPNIEQGVLNFVQYKFSHLAPRERQTMFELSKMFLLCLNYWKLETPAQFRQRSQAEDVATYKVNYTRWLCYCHVPQSCDSLPRYETTHVFGRSLLRSIFTVTRRQLLEKFRVEKDKLVPEKRTLILTHFPKFLSMLEEEIYGANSPIWESGFTMPPSEGTQLVPRPASVSAAVVPSTPIFSPSMGGGSNSSLSLDSAGAEPMPGEKRTLPENLTLEDAKRLRVMGDIPMELVNEVMLTITDPAAMLGPETSLLSANAARDETARLEERRGIIEFHVIGNSLTPKANRRVLLWLVGLQNVFSHQLPRMPKEYIARLVFDPKHKTLALIKDGRVIGGICFRMFPTQGFTEIVFCAVTSNEQVKGYGTHLMNHLKEYHIKHNILYFLTYADEYAIGYFKKQGFSKDIKVPKSRYLGYIKDYEGATLMECELNPRIPYTELSHIIKKQKEIIKKLIERKQAQIRKVYPGLSCFKEGVRQIPVESVPGIRETGWKPLGKEKGKELKDPDQLYTTLKNLLAQIKSHPSAWPFMEPVKKSEAPDYYEVIRFPIDLKTMTERLRSRYYVTRKLFVADLQRVIANCREYNPPDSEYCRCASALEKFFYFKLKEGGLIDK
B4: GDNF (protein, UniProt P39905 78-211, looked up)
Glial cell line-derived …: SPDKQMAVLPRRERNRQAAAANPENSRGKGRRGQRGKNRGCVLTAIHLNVTDLGLGYETKEELIFRYCSGSCDAAETTYDKILKNLSRNRRLVSDKVGQACCRPIAFDDDLSFLDDNLVYHILRKHSAKRCGCI
B5: GLI1 (protein, UniProt P08151 1-1106, looked up)
Zinc finger protein GLI1: MFNSMTPPPISSYGEPCCLRPLPSQGAPSVGTEGLSGPPFCHQANLMSGPHSYGPARETNSCTEGPLFSSPRSAVKLTKKRALSISPLSDASLDLQTVIRTSPSSLVAFINSRCTSPGGSYGHLSIGTMSPSLGFPAQMNHQKGPSPSFGVQPCGPHDSARGGMIPHPQSRGPFPTCQLKSELDMLVGKCREEPLEGDMSSPNSTGIQDPLLGMLDGREDLEREEKREPESVYETDCRWDGCSQEFDSQEQLVHHINSEHIHGERKEFVCHWGGCSRELRPFKAQYMLVVHMRRHTGEKPHKCTFEGCRKSYSRLENLKTHLRSHTGEKPYMCEHEGCSKAFSNASDRAKHQNRTHSNEKPYVCKLPGCTKRYTDPSSLRKHVKTVHGPDAHVTKRHRGDGPLPRAPSISTVEPKREREGGPIREESRLTVPEGAMKPQPSPGAQSSCSSDHSPAGSAANTDSGVEMTGNAGGSTEDLSSLDEGPCIAGTGLSTLRRLENLRLDQLHQLRPIGTRGLKLPSLSHTGTTVSRRVGPPVSLERRSSSSSSISSAYTVSRRSSLASPFPPGSPPENGASSLPGLMPAQHYLLRARYASARGGGTSPTAASSLDRIGGLPMPPWRSRAEYPGYNPNAGVTRRASDPAQAADRPAPARVQRFKSLGCVHTPPTVAGGGQNFDPYLPTSVYSPQPPSITENAAMDARGLQEEPEVGTSMVGSGLNPYMDFPPTDTLGYGGPEGAAAEPYGARGPGSLPLGPGPPTNYGPNPCPQQASYPDPTQETWGEFPSHSGLYPGPKALGGTYSQCPRLEHYGQVQVKPEQGCPVGSDSTGLAPCLNAHPSEGPPHPQPLFSHYPQPSPPQYLQSGPYTQPPPDYLPSEPRPCLDFDSPTHSTGQLKAQLVCNYVQSQQELLWEGGGREDAPAQEPSYQSPKFLGGSQVSPSRAKAPVNTYGPGFGPNLPNHKSGSYPTPSPCHENFVVGANRASHRAAAPPRLLPPLPTCYGPLKVGGTNPSCGHPEVGRLGGGPALYPPPEGQVCNPLDSLDLDNTQLDFVAILDEPQGLSPPPSHDQRGSSGHTPPPSGPPNMAVGNMSVLLRSLPGETEFLNSSA
B6: GLI4 (protein, UniProt P10075 1-376, looked up)
Zinc finger protein GLI4: MAALGDIQESPSVPSPVSLSSPGTPGTQHHEPQLHLHGHQHGSPGSSPKVLSQPSDLDLQDVEEVEIGRDTFWPDSEPKPEQAPRSPGSQAPDEGAGGALRSLLRSLPRRARCSAGFGPESSAERPAGQPPGAVPCAQPRGAWRVTLVQQAAAGPEGAPERAAELGVNFGRSRQGSARGAKPHRCEACGKSFKYNSLLLKHQRIHTGEKPYACHECGKRFRGWSGFIQHHRIHTGEKPYECGQCGRAFSHSSHFTQHLRIHNGEKPYKCGECGQAFSQSSNLVRHQRLHTGEKPYACSQCGKAFIWSSVLIEHQRIHTGEKPYECSDCGKAFRGRSHFFRHLRTHTGEKPFACGACGKAFGQSSQLIQHQRVHYRE
B7: GLIS3 (protein, UniProt Q8NEA6 1-775, looked up)
Zinc finger protein GLIS3: MMVQRLGLISPPASQVSTACNQISPSLQRAMNAANLNIPPSDTRSLISRESLASTTLSLTESQSASSMKQEWSQGYRALPSLSNHGSQNGLDLGDLLSLPPGTSMSSNSVSNSLPSYLFGTESSHSPYPSPRHSSTRSHSARSKKRALSLSPLSDGIGIDFNTIIRTSPTSLVAYINGSRASPANLSPQPEVYGHFLGVRGSCIPQPRPVPGSQKGVLVAPGGLALPAYGEDGALEHERMQQLEHGGLQPGLVNHMVVQHGLPGPDSQSAGLFKTERLEEFPGSTVDLPPAPPLPPLPPPPGPPPPYHAHAHLHHPELGPHAQQLALPQATLDDDGEMDGIGGKHCCRWIDCSALYDQQEELVRHIEKVHIDQRKGEDFTCFWAGCPRRYKPFNARYKLLIHMRVHSGEKPNKCTFEGCEKAFSRLENLKIHLRSHTGEKPYLCQHPGCQKAFSNSSDRAKHQRTHLDTKPYACQIPGCTKRYTDPSSLRKHVKAHSSKEQQARKKLRSSTELHPDLLTDCLTVQSLQPATSPRDAAAEGTVGRSPGPGPDLYSAPIFSSNYSSRSGTAAGAVPPPHPVSHPSPGHNVQGSPHNPSSQLPPLTAVDAGAERFAPSAPSPHHISPRRVPAPSSILQRTQPPYTQQPSGSHLKSYQPETNSSFQPNGIHVHGFYGQLQKFCPPHYPDSQRIVPPVSSCSVVPSFEDCLVPTSMGQASFDVFHRAFSTHSGITVYDLPSSSSSLFGESLRSGAEDATFLQISTVDRCPSQLSSVYTEG
B8: GMNN (protein, UniProt O75496 1-209, looked up)
Geminin: MNPSMKQKQEEIKENIKNSSVPRRTLKMIQPSASGSLVGRENELSAGLSKRKHRNDHLTSTTSSPGVIVPESSENKNLGGVTQESFDLMIKENPSSQYWKEVAEKRRKALYEALKENEKLHKEIEQKDNEIARLKKENKELAEVAEHVQYMAELIERLNGEPLDNFESLDNQEFDSEEETVEDSLVEDSEIGTCAEGTVSSSTDAKPCI
B9: GPS2 (protein, UniProt Q13227 1-327, looked up)
G protein pathway suppressor 2: MPALLERPKLSNAMARALHRHIMMERERKRQEEEEVDKMMEQKMKEEQERRKKKEMEERMSLEETKEQILKLEEKLLALQEEKHQLFLQLKKVLHEEEKRRRKEQSDLTTLTSAAYQQSLTVHTGTHLLSMQGSPGGHNRPGTLMAADRAKQMFGPQVLTTRHYVGSAAAFAGTPEHGQFQGSPGGAYGTAQPPPHYGPTQPAYSPSQQLRAPSAFPAVQYLSQPQPQPYAVHGHFQPTQTGFLQPGGALSLQKQMEHANQQTGFSDSSSLRPMHPQALHPAPGLLASPQLPVQMQPAGKSGFAATSQPGPRLPFIQHSQNPRFYHK
B10: GRHL3 (protein, UniProt Q8TE85 1-626, looked up)
Grainyhead-like protein 3 …: MSNELDFRSVRLLKNDPVNLQKFSYTSEDEAWKTYLENPLTAATKAMMRVNGDDDSVAALSFLYDYYMGPKEKRILSSSTGGRNDQGKRYYHGMEYETDLTPLESPTHLMKFLTENVSGTPEYPDLLKKNNLMSLEGALPTPGKAAPLPAGPSKLEAGSVDSYLLPTTDMYDNGSLNSLFESIHGVPPTQRWQPDSTFKDDPQESMLFPDILKTSPEPPCPEDYPSLKSDFEYTLGSPKAIHIKSGESPMAYLNKGQFYPVTLRTPAGGKGLALSSNKVKSVVMVVFDNEKVPVEQLRFWKHWHSRQPTAKQRVIDVADCKENFNTVEHIEEVAYNALSFVWNVNEEAKVFIGVNCLSTDFSSQKGVKGVPLNLQIDTYDCGLGTERLVHRAVCQIKIFCDKGAERKMRDDERKQFRRKVKCPDSSNSGVKGCLLSGFRGNETTYLRPETDLETPPVLFIPNVHFSSLQRSGGAAPSAGPSSSNRLPLKRTCSPFTEEFEPLPSKQAKEGDLQRVLLYVRRETEEVFDALMLKTPDLKGLRNAISEKYGFPEENIYKVYKKCKRGETSLLHPRLSRHPPPDCLECSHPVTQVRNMGFGDGFWRQRDLDSNPSPTTVNSLHFTVNSE
B11: GTF2A1 (protein, UniProt P52655 2-376, looked up)
Transcription initiation …: ANSANTNTVPKLYRSVIEDVINDVRDIFLDDGVDEQVLMELKTLWENKLMQSRAVDGFHSEEQQLLLQVQQQHQPQQQQHHHHHHHQQAQPQQTVPQQAQTQQVLIPASQQATAPQVIVPDSKLIQHMNASNMSAAATAATLALPAGVTPVQQILTNSGQLLQVVRAANGAQYIFQPQQSVVLQQQVIPQMQPGGVQAPVIQQVLAPLPGGISPQTGVIIQPQQILFTGNKTQVIPTTVAAPTPAQAQITATGQQQPQAQPAQTQAPLVLQVDGTGDTSSEEDEDEEEDYDDDEEEDKEKDGAEDGQVEEEPLNSEDDVSDEEGQELFDTENVVVCQYDKIHRSKNKWKFHLKDGIMNLNGRDYIFSKAIGDAEW

System: HEK293FT cells transfected with TF library
Test: Screening of TF condensates based on fluorescent puncta
Assay type: cell-based
Settings: Figure 1B numerical data; TF library screen, one value per transcriptional factor
Method in brief: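 TF plasmids (final 1.6 μg/ml) reverse-transfected with PEI (4.8 μg/ml) into HEK293FT cells; after 60 h, cells cultured ±glucose for 12 h, fixed in 4% PFA and immunostained for Flag or GAL4 tags with Alexa 488 secondaries. Puncta scored by automated imaging of 50 random fields per well.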

Point of comparison: B4, “Z score of condensed fraction” value -0.9627. Against it:
- B1 — higher, -0.7866
- B2 — lower, -0.9628
- B3 — higher, -0.5333
- B5 — higher, 1.126
- B6 — higher, 0.3449
- B7 — higher, 0.8153
- B8 — higher, 0.2471
- B9 — higher, -0.6135
- B10 — higher, -0.6859
- B11 — higher, 0.06864

From publication PMC11574045, “A cofactor-induced repressive type of transcription factor condensation can be induced by synthetic peptides to suppress tumorigenesis” (The EMBO Journal, 2024)
